The source of these data is PMC4513872.

The target of this assay is C-Intein_C-Cas9_v1 (Nostoc punctiforme | Streptococcus pyogenes) (UniProt Q99ZW2).

With “N-Cas9_N-Intein_v1 (from UniProt Q99ZW2 1-573)”, the percentage of indels at the endogenous Fus locus in Neuro-2a cells (T7 endonuclease I assay) after transfection of both moieties; wild-type SpCas9 gave 23.1% was 22.7%.
